The experiment addresses HLA-A*02:01 (Homo sapiens, UniProt P04439, D140Y/D185E/D98H/E176V/E277Q/G131W/G231S/I119V/I121R/I166T/I218V/L300P/L318F/N151K/N90K/P208A/P217A/Q86G/Q94H/R138H/R169H/T345S). Briefly: MHC binding assay: UV-ligand exchange with beta2m ELISA. The following applies: MHC class I binding score, yield of UV-ligand exchange. From the text:
Candidate peptides for T cell based therapies according to the present invention were further tested for their MHC binding capacity (affinity). The individual peptide-MHC complexes were produced by UV-ligand exchange, where a UV-sensitive peptide is cleaved upon UV-irradiation, and exchanged with the peptide of interest as analyzed. Only peptide candidates that can effectively bind and stabilize the peptide-receptive MHC molecules prevent dissociation of the MHC complexes. To determine the yield of the exchange reaction, an ELISA was performed based on the detection of the light chain (β2m) of stabilized MHC complexes. The assay was performed as generally described in Rodenko et al. (Rodenko et al., 2006).
96 well MAXISorp plates (NUNC) were coated over night with 2 ug/ml streptavidin in PBS at room temperature, washed 4× and blocked for 1 h at 37° C. in 2% BSA containing blocking buffer. Refolded HLA-A*02:01/MLA-001 monomers served as standards, covering the range of 15-500 ng/ml. Peptide-MHC monomers of the UV-exchange reaction were diluted 100 fold in blocking buffer. Samples were incubated for 1 h at 37° C., washed four times, incubated with 2 ug/ml HRP conjugated anti-β2m for 1 h at 37° C., washed again and detected with TMB solution that is stopped with […]. Absorption was measured at 450 nm. Candidate peptides that show a high exchange yield (preferably higher than 50%, most preferred higher than 75%) are generally preferred for a generation and production of antibodies or fragments thereof, and/or T cell receptors or fragments thereof, as they show sufficient avidity to the MHC molecules and prevent dissociation of the MHC complexes.

For “44 (VLLDKIKNLQV; listed as Homo sapiens) [compound 44]”, the Peptide exchange result is on record as “++ (20%-49% = ++)”.
On to “53 (SSFGGLGGGSV; listed as Homo sapiens) [compound 53]”, for which the Peptide exchange result is “+ (<20% = +)”.
Consider “24 (GLLEELVTV; listed as Homo sapiens) [compound 24]”, for which the Peptide exchange entry is “++ (20%-49% = ++)”.
Then “46 (TFAPVNVTTEVKSV; listed as Homo sapiens) [compound 46]”, with “++ (20%-49% = ++)”; and “4 (SVDVSPPKV; listed as Homo sapiens) [compound 4]”, with “++ (20%-49% = ++)”.
In the case of “51 (ALMLQGVDL; listed as Homo sapiens) [compound 51]”, the Peptide exchange result was “++ (20%-49% = ++)”.
With “35 (VMDSGDGVTHTV; listed as Homo sapiens) [compound 35]”, the Peptide exchange result was “++ (20%-49% = ++)”.
Consider “1 (FLAQQESEI; listed as Homo sapiens) [compound 1]”, for which the Peptide exchange result is given as “++ (20%-49% = ++)”.
Take “57 (FLGKVVIDV; listed as Homo sapiens) [compound 57]”: the Peptide exchange result is “++++ (>=75% = ++++)”.
Take “40 (FILDSAETTTL; listed as Homo sapiens) [compound 40]”: the Peptide exchange result is listed as “++ (20%-49% = ++)”.
As to “10 (FLVDGSSAL; listed as Homo sapiens) [compound 10]”, the Peptide exchange entry is given as “++ (20%-49% = ++)”.
Consider “41 (FLLDGSEGV; listed as Homo sapiens) [compound 41]”, for which the Peptide exchange result is recorded as “+++ (50%-75% = +++)”.
As to “48 (ALTQTGGPHV; listed as Homo sapiens) [compound 48]”, the Peptide exchange result is given as “++ (20%-49% = ++)”.
As to “17 (FLKSGDAAIV; listed as Homo sapiens) [compound 17]”, the Peptide exchange entry is on record as “++ (20%-49% = ++)”.
For “65 (YLYDSETKNA; listed as Homo sapiens) [compound 65]”, the Peptide exchange entry is reported as “++ (20%-49% = ++)”.
Then “66 (ALLSGLREA; listed as Homo sapiens) [compound 66]”, with “+++ (50%-75% = +++)”; and “30 (VVDEGPTGV; listed as Homo sapiens) [compound 30]”, with “++ (20%-49% = ++)”; and “9 (FLFDGSANLV; listed as Homo sapiens) [compound 9]”, with “++ (20%-49% = ++)”.
As for “47 (KMDASLGNLFA; listed as Homo sapiens) [compound 47]”, the Peptide exchange result was “++++ (>=75% = ++++)”.
For the substance “64 (FLVSNMLLAEA; listed as Homo sapiens) [compound 64]”, the Peptide exchange entry is given as “+++ (50%-75% = +++)”.
As to “29 (FLQEYLDAI; listed as Homo sapiens) [compound 29]”, the Peptide exchange result was “+++ (50%-75% = +++)”.
Turning to “22 (TLDGAAVNQV; listed as Homo sapiens) [compound 22]”, the Peptide exchange result is recorded as “++ (20%-49% = ++)”.
As for “56 (GLLDYATGAIGSV; listed as Homo sapiens) [compound 56]”, the Peptide exchange entry is reported as “+++ (50%-75% = +++)”.
As for “43 (RLDQRVPQI; listed as Homo sapiens) [compound 43]”, the Peptide exchange entry is reported as “++ (20%-49% = ++)”.
Regarding “28 (YLQGQRLDNVV; listed as Homo sapiens) [compound 28]”, the Peptide exchange entry was “++ (20%-49% = ++)”.
With “16 (APVNVTTEVKSV; listed as Homo sapiens) [compound 16]”, the Peptide exchange entry is listed as “++ (20%-49% = ++)”.
Then “2 (SLQEEHVAVA; listed as Homo sapiens) [compound 2]”, with “++ (20%-49% = ++)”; and “18 (SLLDDELMSL; listed as Homo sapiens) [compound 18]”, with “++ (20%-49% = ++)”.
As to “14 (VLAKPGVISV; listed as Homo sapiens) [compound 14]”, the Peptide exchange result is reported as “++ (20%-49% = ++)”.
For the substance “42 (KLVDKSTEL; listed as Homo sapiens) [compound 42]”, the Peptide exchange result is given as “++ (20%-49% = ++)”.
Regarding “27 (YLQGQRLDNV; listed as Homo sapiens) [compound 27]”, the Peptide exchange entry is reported as “++ (20%-49% = ++)”.
As to “33 (SLDSRLELA; listed as Homo sapiens) [compound 33]”, the Peptide exchange entry is “++ (20%-49% = ++)”.
The entry for “13 (LLAGQTYHV; listed as Homo sapiens) [compound 13]” is “++ (20%-49% = ++)”.
As for “11 (FLYKIIDEL; listed as Homo sapiens) [compound 11]”, the Peptide exchange entry is on record as “+++ (50%-75% = +++)”.
With “59 (KLFNLSKEDDV; listed as Homo sapiens) [compound 59]”, the Peptide exchange result is “++ (20%-49% = ++)”.
Consider “54 (VLLSEIEVA; listed as Homo sapiens) [compound 54]”, for which the Peptide exchange entry is recorded as “++ (20%-49% = ++)”.
As for “38 (NLVEKTPALV; listed as Homo sapiens) [compound 38]”, the Peptide exchange entry was “+++ (50%-75% = +++)”.
Consider “60 (YLEEDVYQL; listed as Homo sapiens) [compound 60]”, for which the Peptide exchange entry was “++ (20%-49% = ++)”.
In the case of “26 (SLKEEVGEEAIV; listed as Homo sapiens) [compound 26]”, the Peptide exchange entry is reported as “++ (20%-49% = ++)”.
For the substance “39 (TLLSNLEEA; listed as Homo sapiens) [compound 39]”, the Peptide exchange entry is recorded as “++ (20%-49% = ++)”.
For “55 (YLDAMMNEA; listed as Homo sapiens) [compound 55]”, the Peptide exchange result is given as “++ (20%-49% = ++)”.
“5 (LLVDDSFLHTV; listed as Homo sapiens) [compound 5]”: the Peptide exchange result was “+++ (50%-75% = +++)”.
In the case of “6 (VLISLKQAPLV; listed as Homo sapiens) [compound 6]”, the Peptide exchange entry is given as “++ (20%-49% = ++)”.
“67 (KMFFLIDKV; listed as Homo sapiens) [compound 67]”: the Peptide exchange entry is reported as “+++ (50%-75% = +++)”.
Regarding “25 (SLKEEVGEEAI; listed as Homo sapiens) [compound 25]”, the Peptide exchange entry is “++ (20%-49% = ++)”.
With “15 (SLANNVTSV; listed as Homo sapiens) [compound 15]”, the Peptide exchange result is “++ (20%-49% = ++)”.
As to “52 (RMVEEIGVEL; listed as Homo sapiens) [compound 52]”, the Peptide exchange entry was “++ (20%-49% = ++)”.
On to “31 (SLAAAAGKQEL; listed as Homo sapiens) [compound 31]”, for which the Peptide exchange result is recorded as “++ (20%-49% = ++)”.
The entry for “49 (NLKGTFATL; listed as Homo sapiens) [compound 49]” is “+ (<20% = +)”; for “58 (GLAAFKAFL; listed as Homo sapiens) [compound 58]” it is “+++ (50%-75% = +++)”.
“8 (IVDDLTINL; listed as Homo sapiens) [compound 8]”: the Peptide exchange result is on record as “++ (20%-49% = ++)”.
The entry for “32 (SLAAAAGKQELA; listed as Homo sapiens) [compound 32]” is “+ (<20% = +)”; for “12 (FVSEIVDTV; listed as Homo sapiens) [compound 12]” it is “+++ (50%-75% = +++)”.
The entry for “7 (AQQESEIAGI; listed as Homo sapiens) [compound 7]” is “++ (20%-49% = ++)”.

Source of the values: patent publication US10898561B2, “Peptides and combination of peptides for use in immunotherapy against pancreatic cancer and other cancers” (IMMATICS BIOTECHNOLOGIES GMBH, priority 2015, dated 2021).
